The source of these data is US20230053214.

The target in the series is human tau (441 amino acids), wild-type.

B1: human wild-type p38γ (HA-tagged) (protein)
chain: MSSPPPARSGFYRQEVTKTAWEVRAVYRDLQPVGSGAYGAVCSAVDGRTGAKVAIKKLYRPFQSELFAKRAYRELRLLKHMRHENVIGLLDVFTPDETLDDFTDFYLVMPFMGTDLGKLMKHEKLGEDRIQFLVYQMLKGLRYIHAAGIIHRDLKPGNLAVNEDCELKILDFGLARQADSEMTGYVVTRWYRAPEVILNWMRYTQTVDIWSVGCIMAEMITGKTLFKGSDHLDQLKEIMKVTGTPPAEFVQRLQSDEAKNYMKGLPELEKKDFASILTNASPLAVNLLEKMLVLDAEQRVTAGEALAHPYFESLHDTEDEPQVQKYDDSFDDVDRTLDEWKRVTYKEVLSFKPPRQLGARVSKETPL
As for B1, the “in vitro kinase assay with tau variants mutated to alanine” value was “confirmed site-specific phosphorylation of S199, T205, S396 and S404 by p38γ”; the “in vitro kinase assay, immunoblotting with phosphorylation site specific antibodies” value was “showed phosphorylation of tau at S199, T205, S396 and S404, but not other sites tested by p38γ”.
